Reference: the Human Domainome abundance scans (Beltran et al. 2025)
± gives the uncertainty stated by the source.

B1: Gamma-crystallin C, residues 4 to 79; numbered along this chain, P07315 (parent)
chain: ITFYEDRAFQGRSYETTTDCPNLQPYFSRCNSIRVESGCWMLYERPNYQGQQYLLRRGEYPDYQQWMGLSDSIRSC

Variants of: B1
Assay: abundance fitness (aPCA) (normalised: wild type 0, dead -1); higher = more abundant; growth selection in yeast, the domain comes from the species named
Details: Homo sapiens

| Variant | abundance fitness |
| --- | --- |
| ITFYEDRAFQGRSMETTTDCPNLQPYFSRCNSIRVESGCWMLYERPNYQGQQYLLRRGEYPDYQQWMGLSDSIRSC [Y14M] | 0.423 ± 0.29 |
| ITFYEDRAFQGRSYETTTWCPNLQPYFSRCNSIRVESGCWMLYERPNYQGQQYLLRRGEYPDYQQWMGLSDSIRSC [D19W] | 0.059 ± 0.12 |
| ITFYEDRAFQGRSYETTTGCPNLQPYFSRCNSIRVESGCWMLYERPNYQGQQYLLRRGEYPDYQQWMGLSDSIRSC [D19G] | -0.101 ± 0.067 |
| ITFYEDRAFQGRSYETTTDCPNLQPYFSRCNSIRVESGCWMLYERPNYQGQQYLLRRGEYPDYQQWMGLSDSIRYC [S75Y] | -0.599 ± 0.25 |
| ITFYEDRAFQGRSYETTTDCPNLQPYFSRCNSIRVESGCWMLYERPNYQGQQYLLRRGEYPDYQQWMGLSDSIRIC [S75I] | -0.186 ± 0.15 |
| ITFYEDRAFQGRSYETTTDCPNLQPYFSRCNSIRVESGCWMLYERPNYQGQQYLLRRGEYPDYQQWMGLSDSIRFC [S75F] | -0.979 ± 0.26 |
| ITFYEDRAFQGRSYETTTDCPNLQPYFSRCNSIRVESGCWMLYERPNNQGQQYLLRRGEYPDYQQWMGLSDSIRSC [Y48N] | -0.121 ± 0.28 |
| ITFYEDRAFQGRSYEQTTDCPNLQPYFSRCNSIRVESGCWMLYERPNYQGQQYLLRRGEYPDYQQWMGLSDSIRSC [T16Q] | 0.027 ± 0.081 |
| ITFYEDRAFQGRSYEETTDCPNLQPYFSRCNSIRVESGCWMLYERPNYQGQQYLLRRGEYPDYQQWMGLSDSIRSC [T16E] | -0.291 ± 0.12 |
| ITFYEYRAFQGRSYETTTDCPNLQPYFSRCNSIRVESGCWMLYERPNYQGQQYLLRRGEYPDYQQWMGLSDSIRSC [D6Y] | 0.032 ± 0.23 |
| ITFYESRAFQGRSYETTTDCPNLQPYFSRCNSIRVESGCWMLYERPNYQGQQYLLRRGEYPDYQQWMGLSDSIRSC [D6S] | -0.065 ± 0.097 |
| ITFYEDRAFQGRSYETTTDCPNLQPYFSRCNSIRVESGCWMLYERPNYQGQQYLLRRGPYPDYQQWMGLSDSIRSC [E59P] | 0.003 ± 0.15 |
| ITFYEDRAFQGRSYETTTDCPNLQPYFHRCNSIRVESGCWMLYERPNYQGQQYLLRRGEYPDYQQWMGLSDSIRSC [S28H] | -0.014 ± 0.11 |
| ITFYEDRAFQGRSYETTTDCPNLQPYFNRCNSIRVESGCWMLYERPNYQGQQYLLRRGEYPDYQQWMGLSDSIRSC [S28N] | 0.058 ± 0.15 |
| ITFYEDRAFQGRSYETTTDCPNLQPYFGRCNSIRVESGCWMLYERPNYQGQQYLLRRGEYPDYQQWMGLSDSIRSC [S28G] | 0.042 ± 0.12 |
| ITFYEDRAFQGRSYETTTDCPNLQPYFSRCNSIRVESGCWMLYERPNYQGQQYLLRRGEYPDYQQWMGLSDGIRSC [S72G] | 0.022 ± 0.054 |
| ITFYEDRAFQGRSYETTTDCPNLQPKFSRCNSIRVESGCWMLYERPNYQGQQYLLRRGEYPDYQQWMGLSDSIRSC [Y26K] | -0.047 ± 0.13 |
| ITFYEDRAFQGRSYETTTDCPNLQPMFSRCNSIRVESGCWMLYERPNYQGQQYLLRRGEYPDYQQWMGLSDSIRSC [Y26M] | 0.078 ± 0.084 |

| Variant | abundance fitness |
| --- | --- |
| ITFYEDRALQGRSYETTTDCPNLQPYFSRCNSIRVESGCWMLYERPNYQGQQYLLRRGEYPDYQQWMGLSDSIRSC [F9L] | 0.12 ± 0.16 |
| ITFYEDRAFQGRSYETTTDCPNLQPYFSRCNSIRVESGCWMLYESPNYQGQQYLLRRGEYPDYQQWMGLSDSIRSC [R45S] | -0.127 ± 0.15 |
| ITFYEDRAFQGRSYETTTDCPNLQPYFSRCNSIRVESGCWMLYEGPNYQGQQYLLRRGEYPDYQQWMGLSDSIRSC [R45G] | 0.061 ± 0.067 |
| ITFYEDRAFQGRSYETTTDCPNLQPYFSRCNSIRVESGCWMLYEPPNYQGQQYLLRRGEYPDYQQWMGLSDSIRSC [R45P] | -0.955 ± 0.23 |
| ITFYEDRAFQGRSYETTTDCPNLQPYFSRCNSIRVESGCWSLYERPNYQGQQYLLRRGEYPDYQQWMGLSDSIRSC [M41S] | 0.068 ± 0.1 |
| ITFYEDRAFQVRSYETTTDCPNLQPYFSRCNSIRVESGCWMLYERPNYQGQQYLLRRGEYPDYQQWMGLSDSIRSC [G11V] | -0.393 ± 0.06 |
| ITFYEDCAFQGRSYETTTDCPNLQPYFSRCNSIRVESGCWMLYERPNYQGQQYLLRRGEYPDYQQWMGLSDSIRSC [R7C] | -0.002 ± 0.15 |
| ITFYEDRAFQGRSYETTTDCPNLQPYFSRCNSIRVESGCWMLYERPNYQGQQYLLRRGEYPDYQQWMGLSDSIPSC [R74P] | -0.389 ± 0.099 |
| ITFYEDRAFQGRSYETTTDCPNLQPYFSRCNSIRVESGCWMLYERPNYQGQQALLRRGEYPDYQQWMGLSDSIRSC [Y53A] | -0.127 ± 0.15 |
| ITFYEDRAFQGRSYETTTDCPNLQPYFSRCNSIRVESGCWMLYERPNYQGQQYLLRRDEYPDYQQWMGLSDSIRSC [G58D] | 0.251 ± 0.33 |
| ITFYEDRAFQGRSYETTTDCPNLQPYFSRCNSIRVESGCWMLYERPNYQGQQYLLRRLEYPDYQQWMGLSDSIRSC [G58L] | -0.659 ± 0.12 |
| ITFYEDRAFQGRSYETTTDCPNLQPYFSRFNSIRVESGCWMLYERPNYQGQQYLLRRGEYPDYQQWMGLSDSIRSC [C30F] | -0.176 ± 0.12 |
| ITFYEDRAFQGRSYETTTDCPNLDPYFSRCNSIRVESGCWMLYERPNYQGQQYLLRRGEYPDYQQWMGLSDSIRSC [Q24D] | 0.13 ± 0.47 |
| ITFYEDRAFQGRSYETTTDCPNLQPYFSRCTSIRVESGCWMLYERPNYQGQQYLLRRGEYPDYQQWMGLSDSIRSC [N31T] | -0.056 ± 0.4 |
| ITFYEDRAFQGRSYNTTTDCPNLQPYFSRCNSIRVESGCWMLYERPNYQGQQYLLRRGEYPDYQQWMGLSDSIRSC [E15N] | 0.075 ± 0.28 |
| ITFYEDRAFQGRSYPTTTDCPNLQPYFSRCNSIRVESGCWMLYERPNYQGQQYLLRRGEYPDYQQWMGLSDSIRSC [E15P] | -0.072 ± 0.14 |
| ITFYEDRAFQGRSYDTTTDCPNLQPYFSRCNSIRVESGCWMLYERPNYQGQQYLLRRGEYPDYQQWMGLSDSIRSC [E15D] | -0.064 ± 0.12 |
| ITFYEDRAFQGRSYETTTDCPNLQPYFSRCNQIRVESGCWMLYERPNYQGQQYLLRRGEYPDYQQWMGLSDSIRSC [S32Q] | -0.916 ± 0.4 |
